Measurements taken from paper PMC4303294 (Biochemistry, 2014).

Target: the molecule itself
Assay: SEC

B1: nitrophorin 4 (NP4) reconstituted with the symmetrical hemin, 2,4-dimethyldeuterohemin (natural protein, Rhodnius prolixus, UniProt Q94734 22-205, looked up)
chain: ACTKNAIAQTGFNKDKYFNGDVWYVTDYLDLEPDDVPKRYCAALAAGTASGKLKEALYHYDPKTQDTFYDVSELQVESLGKYTANFKKVDKNGNVKVAVTAGNYYTFTVMYADDSSALIHTCLHKGNKDLGDLYAVLNRNKDAAAGDKVKSAVSAATLEFSKFISTKENNCAYDNDSLKSLLTK
- stoichiometry N: 2
